Blank lines part the entries; values can stand above or below the molecule they belong to. Non-standard residues stand in square brackets, D forms with d. No end group written: not given here. Alexa 488 = Alexa Fluor 488 fluorescent dye; Nle = CCCC[C@H](N)C(=O)O
Assays:
[1] = molecular target: human type 1 cholecystokinin receptor (CCK1R), CHO-CCK1R cell line (human) (UniProt P32238)
[2] = molecular target: T1, type 1 cholecystokinin receptor (CCK1R) (Homo sapiens, UniProt P32238); experiment: fluorescence polarization kinetics (slowed alexa488-CCK off-rate); calcium assay fitted with operational allosteric model; format: cell-based
T1 construct: gene CCKAR; CHO-CCK1R cells and membranes
T1 sequence (P32238 1-428): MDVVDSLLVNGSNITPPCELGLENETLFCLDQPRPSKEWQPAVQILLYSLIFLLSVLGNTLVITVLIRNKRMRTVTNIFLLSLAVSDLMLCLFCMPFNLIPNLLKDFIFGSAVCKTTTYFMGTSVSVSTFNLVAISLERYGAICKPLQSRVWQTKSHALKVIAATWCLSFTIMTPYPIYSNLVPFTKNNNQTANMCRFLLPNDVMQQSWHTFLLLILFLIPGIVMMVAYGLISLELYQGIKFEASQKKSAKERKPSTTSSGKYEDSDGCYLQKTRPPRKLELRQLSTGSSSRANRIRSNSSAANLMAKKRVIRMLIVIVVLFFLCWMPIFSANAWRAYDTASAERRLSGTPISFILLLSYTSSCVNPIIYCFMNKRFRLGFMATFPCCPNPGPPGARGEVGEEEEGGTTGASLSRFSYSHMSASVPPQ

[3] = molecular target: T2, rat type 1 CCK receptor (rat), P30551
T2 chain: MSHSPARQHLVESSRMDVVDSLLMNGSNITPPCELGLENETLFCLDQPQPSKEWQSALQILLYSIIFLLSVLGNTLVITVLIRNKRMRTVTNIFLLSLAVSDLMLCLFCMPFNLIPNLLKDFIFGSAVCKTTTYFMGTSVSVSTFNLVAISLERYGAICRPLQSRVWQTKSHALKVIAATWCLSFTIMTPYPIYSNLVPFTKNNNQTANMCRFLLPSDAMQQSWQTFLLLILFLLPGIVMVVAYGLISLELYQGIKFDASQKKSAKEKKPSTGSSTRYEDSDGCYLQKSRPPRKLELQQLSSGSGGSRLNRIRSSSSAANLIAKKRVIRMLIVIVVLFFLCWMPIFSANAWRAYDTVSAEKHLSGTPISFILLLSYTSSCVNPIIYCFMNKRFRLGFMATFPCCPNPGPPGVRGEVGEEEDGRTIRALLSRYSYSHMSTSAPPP

[4] = molecular target: Cynomolgus monkey CCK1R (Cynomolgus monkey); experiment: radioligand binding; radioligand competition-binding assay on intact receptor-expressing cells; radioiodinated D-Tyr-Gly-[(Nle28,31)CCK-26-33] as radioligand, unlabeled CCK as competitor; duplicates, at least three independent experiments
[5] = molecular target: Cynomolgus monkey CCK1R (Cynomolgus monkey)
[6] = molecular target: T3, human type 1 cholecystokinin receptor (CCK1R), CHO-CCK1R cell line (human, UniProt P32238 1-428); experiment: fluorescence polarisation; alexa488-CCK (3.2 nM) added to CHO-CCK1R membranes in KRH buffer, pH 7.4, 0.2% bovine serum albumin; dissociation started with 1 µM unlabeled CCK-8; absence of Compound 1; conditions: one partner purified
T3 construct: type 1 cholecystokinin receptor, human, wild type; also called human CCK1R; WT CCK1R; source: CHO-K1 cell line stably expressing the receptor (CHO-CCK1R); intact cells and membranes
T3 sequence (looked up): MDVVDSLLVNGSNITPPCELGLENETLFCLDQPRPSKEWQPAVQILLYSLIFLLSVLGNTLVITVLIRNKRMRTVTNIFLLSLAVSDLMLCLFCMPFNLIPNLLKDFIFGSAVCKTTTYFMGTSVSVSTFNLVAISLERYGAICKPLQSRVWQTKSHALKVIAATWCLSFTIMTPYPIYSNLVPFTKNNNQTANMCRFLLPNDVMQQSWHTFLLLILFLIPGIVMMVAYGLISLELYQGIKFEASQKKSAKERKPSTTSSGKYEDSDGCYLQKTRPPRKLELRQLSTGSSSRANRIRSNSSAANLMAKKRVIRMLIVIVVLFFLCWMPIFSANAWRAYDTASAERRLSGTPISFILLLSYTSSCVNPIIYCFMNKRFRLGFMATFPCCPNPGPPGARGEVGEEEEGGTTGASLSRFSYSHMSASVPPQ

pEC50 for CCK, peak intracellular calcium response in CHO cells expressing human CCK1R, + 10 µM Compound 1 [1]: 9.9 | pEC50 for CCK, peak intracellular calcium response in CHO cells expressing human CCK1R, control [1]: 9.1
Molecule: Synthetic CCK-58 (peptide)

Molecule: C=C[C@H]1CN2CC[C@H]1C[C@@H]2CNC(=O)Nc1cccc(C(F)(F)F)c1 [Compound 1, 3-[(1S,2R,4S,5R)-5-ethenyl-1-azabicyclo[2.2.2]octan-2-yl]methyl-1-[3-(trifluoromethyl)phenyl]urea]
Kb [2]: 251 µM

pEC50 for CCK, peak intracellular calcium response in CHO cells expressing rat CCK1R, + 10 µM Compound 1 [3]: 11.9 | pKi [4]: 8.6 | pEC50 for CCK, peak intracellular calcium response in CHO cells expressing Cynomolgus monkey CCK1R, control [5]: 11.2
B1: Synthetic CCK-26-33 (CCK-8) (peptide)
chain: DYMGWMDF
modifications: not checked

koff [6]: 0.0217 s⁻¹ | kon [6]: 2.33e+06 M⁻¹ s⁻¹
B2: alexa^488-D-Tyr-Gly-[(Nle^28,31)CCK-26-33] (peptide)
chain: {Alexa 488}-[dY]GDY[Nle]GW[Nle]DF
modifications: ends and bridges not checked

Reference: paper PMC8689142, “Discovery of a Positive Allosteric Modulator of Cholecystokinin Action at CCK1R in Normal and Elevated Cholesterol” (Frontiers in Endocrinology, 2021)
